By EC50 is commonly meant the concentration giving half of the maximal effect.

Residue numbers refer to the chain shown, from its start.

Among the data in US20260226168A1 (published 2026) are EC50 values, retold here.

The labels stand for the following.
T1: human GPRC5D protein (UniProt Q9NZD1 1-345)
T1 chain: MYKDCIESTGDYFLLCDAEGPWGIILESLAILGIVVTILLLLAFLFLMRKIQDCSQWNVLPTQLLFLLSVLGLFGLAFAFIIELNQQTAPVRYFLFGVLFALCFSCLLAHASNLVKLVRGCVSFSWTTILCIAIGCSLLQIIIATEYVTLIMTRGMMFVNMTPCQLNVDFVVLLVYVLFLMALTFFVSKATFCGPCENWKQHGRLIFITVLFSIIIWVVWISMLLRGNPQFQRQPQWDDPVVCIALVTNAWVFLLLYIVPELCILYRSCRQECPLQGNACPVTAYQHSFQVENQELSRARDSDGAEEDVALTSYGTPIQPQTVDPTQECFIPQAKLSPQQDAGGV

B1: Chi-128 (antibody, V domains shown)
VH: DVQLVESGGGLVQPGGSRKVSCAASGFTFSSFGMHWVRQAPEKGLEWVAYISRGSSTIYYADTVKGRFTISRDNPKNTLFLQMTSLRSEDTAMYYCARSGYGSSSYYFDYWGQGTTLTVSS
VL: ENVLTQSPAIMSASPREKVTMTCRASSSIRSSYLHWYQQKSGASPKLWIYSTSNLASGVPARFSGSGSGTSYSLTISSVEAEDAATYYCQQFSGYPLTFGGGTKLEIKR
B2: Chi-105 (antibody, V domains shown)
VH: EVQLQQSGPELVKPGASVKMSCKASGYTFTDYYMNWVKQSHGKSLEWIGYIYPNNGGTGYNQRFKGKATLTADKSSSTAYMELRSLTSEDSAVYYCARWGGTRLGYYAMDYWGQGTSVTVSS
VL: DIVMTQSQKFMSTSVGDRVSVTCKASQNVGTNVVWYQQKPGQSPKLLIYWASTRHTGVPDRFTGSGSGTDFTLTISNVQSEDLADYFCQQYSRYPYTFGGGTKLEIKR
B3: Chi-89 (antibody, V domains shown)
VH: EVQLVESGGDLVKPGGSLKLSCAASGFTFSSYGMSWVRQTPDKRLEWVATISSGGSYTYYPDSVKGRFTFSRDNAKNTLYLQMSSLKSEDTAMYYCVRQALRYHMDSWGQGTSVTVSS
VL: B2 VL with V34A, L46A, W50S, T53Y, H55Y, T56S, Y86F, S92Y, R93S, Y96W
B4: Chi-169 (antibody, V domains shown)
VH: EVKLVESGGGLVKPGASLKLSCAASGFTFSNYGMSWVRQTSDKRLEWVASISSGGGRIYYPDNVKGRFTISRENAKNTLYLQMSSLKSEDTALYYCTRHAMDNWGQGTSVIVSS
VL: QIVLTQSPAIMSASPGEKVTMTCSASSSVSNMYWYQQKSGTSPKRWIYDTSKLASGVPARFSGSGSGTSYSLTISSMEAEDASTYYCQQWSSNPLTFGAGTTLELKR
B5: Chi-131 (antibody, V domains shown)
VH: EVQLQQSGPELVKPGASVKMSCKASGYTFTNYVMHWVKQKPGQGLEWIGYFNPYNDGTNYNEKFKGKATLTSDKSSNTAYMELSSLTSEDSAVYYCARGGVRRYFDVWGAGTTVTVSS
VL: DIQMTQSPSSLSASLGERVSLTCRASQDIGSNLNWLQLGPDGTIKRLIYATFSLDSGVPKRFSGSRSGSDYSLTISSLESEDFVDYYCQQYANFPPTFGGGTKLEIKR

In the assay the target is T1, human GPRC5D protein. Description: FACS, cells with high expression of hGPRC5D. In general terms: A flow cytometer gives signals particle by particle.
In turn, B1 gave an EC50 of 0.76 nM.
With B2 the figure was 1.44 nM.
Then B3, with 0.7 nM; and B4, with 0.66 nM; and B5, with 0.66 nM.
